Reference: the supplement of paper PMC10567573

B1: INTS4 (parent)
chain: YSSGEFSSGRKWGDDAPKEEVDTG
B2: NET1 (parent)
chain: PTPAKRRSSALWSEMLDITMKESL

Variants of: B1
Assay: protein stability index of a GFP-peptide fusion (GPS, HEK-293T) (PSI 1-6); higher = more stable
Conditions: c terminus: a fixed tail appended
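Also: lentivirally expressed fusions sorted by FACS into six bins by GFP to DsRed ratio, PSI derived from sequencing read proportions per bin multiplied by bin number.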

Protein stability index, by site and new letter:
G24: A 2.59 | I 2.25 | L 2.76 | C 2.96 | D 2.16 | T 2.72 | Q 2.58 | Y 2.28 | P 2.4 | M 2.68 | E 2.74 | N 3.09 | R 2.83 | H 2.51 | S 2.65 | K 3.9 | V 2.72 | F 2.63
E20: G 2.17 | H 2.63 | W 1.97 | K 1.91 | T 2.38 | R 2.28 | V 2.37 | A 2.3 | I 2.43 | N 2.35 | Y 3.19 | D 2.49 | Q 2.6 | P 2.42 | L 1.89 | F 2.42 | M 2.31 | C 2.5 | S 1.91
P17: N 2.87 | G 2.09 | M 2.39 | W 2.9 | K 2.31 | T 2.96 | I 2.44 | A 2.84 | C 2.64 | E 2.8 | Q 2.35 | L 2.57 | S 3.25 | Y 1.99 | V 2.74 | F 2.45 | H 1.47 | R 2.01 | D 3.06
A16: V 2.42 | P 2.32 | T 2.28 | Q 2.71 | W 2.01 | N 2.09 | R 2.71 | S 2.63 | M 2.52 | Y 2.56
V21: G 2.94 | E 2.84 | F 2.58 | C 3.39 | K 2.8 | Y 2.74 | W 1.82 | H 2.74 | R 2.83 | M 2.78 | S 2.54 | I 2.27 | T 3.31 | Q 2.73 | P 3.13 | L 2.28 | D 2.92 | N 2.81
T23: C 2.95 | R 2.96 | A 2.35 | Y 2.36 | S 2.67 | E 2.8 | G 2.81 | N 2.35 | H 2.35 | F 2.47 | D 2.96 | I 2.3 | P 1.9 | L 2.9 | K 2.46 | V 2.39 | W 2.05 | M 1.99 | Q 2.15
K18: I 2.73 | N 2.96 | E 3.84 | H 2.83 | D 3.16 | A 3.05 | R 3.13 | Y 2.62 | P 3.08 | S 3.16 | V 2.81 | W 2.88 | G 3.44 | M 2.82 | L 2.49 | F 4.04 | Q 2.92 | T 2.56 | C 2.62
E19: P 2.3 | S 2.26 | C 2.37 | T 2.72 | H 2.09 | M 2.93 | R 1.75 | D 2.74 | Y 1.74 | I 2.32 | K 2 | N 2.52 | G 2.48 | V 1.84 | A 2.67 | Q 2.95 | F 2.97 | L 1.94
D22: F 3.28 | W 1.64 | Y 2.02 | Q 2.71 | V 1.86 | I 2.66 | T 2.34 | K 1.65 | M 1.63 | R 2.73 | E 2.72 | P 2.38 | N 2.74 | H 2.48 | A 2.06 | C 2.67 | G 2.35 | L 2.27 | S 2.17

Variants of: B2
Assay: as above
Conditions: c terminus: a fixed tail appended

Protein stability index: each site, then its substitutions
S8: W 2.25 | P 2.01 | D 2.65 | E 2.63 | F 1.68 | Y 2.28 | T 2.9 | K 2.96 | I 2.03 | Q 2.33 | M 1.59 | R 1.65 | G 2.53
P1: D 2.12 | V 2.63 | L 2.25 | C 1.75 | K 2.04 | Q 2.78 | G 2.28 | I 2.07 | W 1.89 | T 1.67 | H 3.04 | R 1.92 | A 2.56 | M 1.72 | N 2.33 | S 1.45
S9: A 2.2 | E 2.4 | C 1.47 | F 2.05 | I 1.86 | G 2.79 | Q 2.34 | K 1.64 | V 1.88 | N 2.21 | T 1.57
P3: D 2.32 | I 2.49 | E 2.25 | T 2.21 | W 3.24 | G 2.27 | M 2.24 | Y 1.61 | L 2.1 | C 1.81 | K 2.44 | R 2.5 | H 2.05 | N 2.27 | A 1.88 | Q 2.39 | S 2.17
L11: T 1.71 | K 1.62 | S 1.94 | D 4.29 | E 4.75 | V 3.16 | G 4.11 | P 2.75 | C 2.2 | H 3.62 | N 3.5 | Q 2.27 | M 2.89 | F 1.98 | Y 2.39
K5: W 1.54 | M 2.06 | I 2.42 | N 2.52 | G 2.59 | T 2.51 | R 2.53 | E 2.54 | C 2.38 | D 2.95 | S 2.19 | H 2.55 | A 2.34 | V 2.41
W12: E 4.65 | C 4.32 | D 5.38 | F 3.26 | A 4.09
A10: G 3.48 | K 2.83 | N 2.67 | T 2.52 | M 2.14 | H 2.31 | F 2.02 | P 2 | L 2.55 | V 1.58 | S 2.1 | D 3.58 | C 2.18 | Y 1.63 | E 2.35
R7: A 2.61 | G 2.38 | N 2.85 | S 2.71 | Y 2.39 | V 2.46 | F 2.03 | W 2.36 | T 2.16 | K 2.29 | E 2.8 | M 2.15 | H 2.34 | Q 2.54 | D 3.36 | P 1.96
A4: D 2.46 | L 1.85 | K 2.63 | N 2.07 | E 2.48 | P 2.11 | S 1.73 | T 1.95 | C 1.47 | W 2.27 | Q 2.57 | I 1.99 | Y 1.82 | M 2.07 | V 2.21 | R 2.03 | H 1.84 | F 2.03 | G 2.3
R6: A 3.48 | M 2.56 | I 1.84 | C 1.98 | E 3.25 | V 1.64 | L 1.99 | W 1.99 | F 1.85 | N 2.51 | K 2.1 | P 2.02 | S 2.42 | T 1.76 | H 4.19 | D 2.79
T2: S 1.62 | E 3.04 | Y 1.86 | Q 2.33 | L 2.84 | F 1.97 | M 2.11 | I 2.26 | A 2.93 | W 1.5 | V 2.54 | K 2.15 | N 2.38 | R 2.34 | C 1.55 | H 2.85 | D 2.73 | G 2.06
